Experimental data taken from publication PMC8187860, “Substitution of a Surface-Exposed Residue Involved in an Allosteric Network Enhances Tryptophan Synthase Function in Cells” (Frontiers in Molecular Biosciences, 2021).

How the values were obtained:
[1] = biological target: T1, Escherichia coli tryptophan synthase beta subunit (βTS) (E. coli, UniProt P0A879 1-397); experiment: ITC; αTS subunit (WT or A198W) binding to the βTS subunit; which protein was titrated, buffer and temperature are not told in the main text (Supplementary Figure 5); conditions: both partners purified
T1 construct: tryptophan synthase beta subunit (βTS), E. coli; No removal of the hexahistidine tag is mentioned; also called beta subunit of TS; source: E. coli BL21 (DE3*), purified (Ni-NTA, S200 size exclusion)
T1 sequence (looked up): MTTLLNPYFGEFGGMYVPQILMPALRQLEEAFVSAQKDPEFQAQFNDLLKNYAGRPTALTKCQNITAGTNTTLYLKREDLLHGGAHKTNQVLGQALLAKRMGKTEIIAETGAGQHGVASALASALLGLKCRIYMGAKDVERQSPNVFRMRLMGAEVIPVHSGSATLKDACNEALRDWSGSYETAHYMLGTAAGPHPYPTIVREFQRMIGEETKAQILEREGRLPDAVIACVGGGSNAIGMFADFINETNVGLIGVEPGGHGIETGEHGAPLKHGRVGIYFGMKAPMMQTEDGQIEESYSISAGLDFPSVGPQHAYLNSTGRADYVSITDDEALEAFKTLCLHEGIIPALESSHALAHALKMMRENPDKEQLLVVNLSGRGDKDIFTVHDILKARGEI

[2] = biological target: T1, Escherichia coli tryptophan synthase …; experiment: cell-based or functional assay
[3] = biological target: T2, Escherichia coli tryptophan synthase alpha subunit (αTS), A198W variant (E. coli, UniProt P0A877 1-268, A198W); experiment: ITC
T2 sequence: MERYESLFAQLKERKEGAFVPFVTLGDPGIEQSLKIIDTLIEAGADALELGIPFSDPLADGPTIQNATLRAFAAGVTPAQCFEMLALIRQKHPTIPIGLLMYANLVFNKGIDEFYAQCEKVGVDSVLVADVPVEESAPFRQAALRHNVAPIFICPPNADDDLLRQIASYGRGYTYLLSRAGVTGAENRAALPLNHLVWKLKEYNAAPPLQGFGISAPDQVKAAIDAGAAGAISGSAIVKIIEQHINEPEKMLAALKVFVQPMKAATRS

B1: Escherichia coli tryptophan synthase alpha subunit (αTS), wild type (enzyme, E. coli, UniProt P0A877 1-268, looked up)
chain: MERYESLFAQLKERKEGAFVPFVTLGDPGIEQSLKIIDTLIEAGADALELGIPFSDPLADGPTIQNATLRAFAAGVTPAQCFEMLALIRQKHPTIPIGLLMYANLVFNKGIDEFYAQCEKVGVDSVLVADVPVEESAPFRQAALRHNVAPIFICPPNADDDLLRQIASYGRGYTYLLSRAGVTGAENRAALPLNHLVAKLKEYNAAPPLQGFGISAPDQVKAAIDAGAAGAISGSAIVKIIEQHINEPEKMLAALKVFVQPMKAATRS
notes: tryptophan synthase alpha subunit (αTS, product of trpA), E. coli; Axe et al., 2014) for the construct and its purification; also called WT αTS; WT; source: E. coli BL21 (DE3*), purified as previously (Axe and Boehr, 2013; Axe et al., 2014; O'Rourke et al., 2019
Q: How did the Kd [1] turn out when B1 was run?
A: ~25 nM

B2: Escherichia coli tryptophan synthase alpha subunit (αTS), A198W variant (enzyme, E. coli, UniProt P0A877 1-268, looked up)
chain: MERYESLFAQLKERKEGAFVPFVTLGDPGIEQSLKIIDTLIEAGADALELGIPFSDPLADGPTIQNATLRAFAAGVTPAQCFEMLALIRQKHPTIPIGLLMYANLVFNKGIDEFYAQCEKVGVDSVLVADVPVEESAPFRQAALRHNVAPIFICPPNADDDLLRQIASYGRGYTYLLSRAGVTGAENRAALPLNHLVWKLKEYNAAPPLQGFGISAPDQVKAAIDAGAAGAISGSAIVKIIEQHINEPEKMLAALKVFVQPMKAATRS
notes: tryptophan synthase alpha subunit (αTS, product of trpA), E. coli, with the substitution A198W; Made by QuikChange site-directed mutagenesis of the wild-type αTS plasmid; also called A198W αTS; source: E. coli BL21 (DE3*), purified as previously (Axe and Boehr, 2013; Axe et al., 2014; O'Rourke et al., 2019)
Q: Which results are given for B2?
A: kcat/KM of the full TS complex reaction (production of tryptophan from IGP, 290 nm; 50 µM α2β2 TS complex) [2]: 9900 M⁻¹ s⁻¹; kcat/KM of the βTS assay in the presence of αTS (production of tryptophan from indole, 290 nm; 0.5 µM α2β2 TS complex) [2]: 190000 M⁻¹ s⁻¹; Kd [1]: ~25 nM

B3: Escherichia coli tryptophan synthase beta subunit (βTS) (enzyme)
chain: MTTLLNPYFGEFGGMYVPQILMPALRQLEEAFVSAQKDPEFQAQFNDLLKNYAGRPTALTKCQNITAGTNTTLYLKREDLLHGGAHKTNQVLGQALLAKRMGKTEIIAETGAGQHGVASALASALLGLKCRIYMGAKDVERQSPNVFRMRLMGAEVIPVHSGSATLKDACNEALRDWSGSYETAHYMLGTAAGPHPYPTIVREFQRMIGEETKAQILEREGRLPDAVIACVGGGSNAIGMFADFINETNVGLIGVEPGGHGIETGEHGAPLKHGRVGIYFGMKAPMMQTEDGQIEESYSISAGLDFPSVGPQHAYLNSTGRADYVSITDDEALEAFKTLCLHEGIIPALESSHALAHALKMMRENPDKEQLLVVNLSGRGDKDIFTVHDILKARGEI
Q: How did the Kd [3] turn out when B3 was run?
A: 28 nM
